± gives the standard error. This sample holds only a part of the variants without activity.
B1: glmS ribozyme (parent)
chain: AUAAAAGCGCCAGAACUACAGAAAUGUAGUUGACGAGGAGGAGGUUUAUCGAAUUUUCGGCGGAUGCCUCCAAA

Experiments:
Conditions in all cases: with glucosamine-6-phosphate
[1] = variants of: B1; test: self-cleavage kobs at 40 uM GlcN6P; higher = faster cleavage; RNA array
Outline: (§1)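 A hybridised Cy3 probe tracked barcoded ribozyme variants, transcribed in situ by E. coli RNA polymerase on sequenced MiSeq chips, at 37 °C. The variants received 40 μM to 10 mM glucosamine-6-phosphate in HEPES/KCl/Mg(OAc)2 buffer. kobs came from decay fits and kcat and KM from weighted Michaelis–Menten fits.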

[2] = variants of: B1; test: self-cleavage kobs at 160 uM GlcN6P; higher = faster cleavage; RNA array
Outline: as §1

[3] = variants of: B1; test: self-cleavage kobs at 640 uM GlcN6P; higher = faster cleavage; RNA array
Outline: as §1

[4] = variants of: B1; test: self-cleavage kobs at 2500 uM GlcN6P; higher = faster cleavage; RNA array
Outline: as §1

[5] = variants of: B1; test: self-cleavage kobs at 10000 uM GlcN6P; higher = faster cleavage; RNA array
Outline: as §1

Row | Variant | self-cleavage kobs at 40 uM GlcN6P [1] | self-cleavage kobs at 160 uM GlcN6P [2] | self-cleavage kobs at 640 uM GlcN6P [3] | self-cleavage kobs at 2500 uM GlcN6P [4] | self-cleavage kobs at 10000 uM GlcN6P [5]
1 | G35A C61G U65G C67A U69G | 6.66e-05 ± 2.3e-05 s⁻¹ | – | – | – | –
2 | G35A C70U | < 1e-05 s⁻¹ | < 1e-05 s⁻¹ | < 1e-05 s⁻¹ | < 1e-05 s⁻¹ | < 1e-05 s⁻¹
3 | C34A C50U | < 1e-05 s⁻¹ | < 1e-05 s⁻¹ | < 1e-05 s⁻¹ | < 1e-05 s⁻¹ | < 1e-05 s⁻¹
4 | G35C A42U | < 1e-05 s⁻¹ | < 1e-05 s⁻¹ | < 1e-05 s⁻¹ | < 1e-05 s⁻¹ | –
5 | G35C C50U G51C | < 1e-05 s⁻¹ | < 1e-05 s⁻¹ | < 1e-05 s⁻¹ | < 1e-05 s⁻¹ | < 1e-05 s⁻¹
6 | G35C C67A | < 1e-05 s⁻¹ | < 1e-05 s⁻¹ | < 1e-05 s⁻¹ | – | < 1e-05 s⁻¹
7 | G35C U45C C67G C68A | 0.00152 ± 0.00042 s⁻¹ | – | – | – | 0.000566 ± 0.00018 s⁻¹
8 | A36C G37A C58G | < 1e-05 s⁻¹ | – | – | < 1e-05 s⁻¹ | < 1e-05 s⁻¹
9 | A36C U49C U65A | < 1e-05 s⁻¹ | – | – | – | < 1e-05 s⁻¹
10 | C34A A36G | < 1e-05 s⁻¹ | < 1e-05 s⁻¹ | < 1e-05 s⁻¹ | < 1e-05 s⁻¹ | < 1e-05 s⁻¹
11 | A33G U47A | < 1e-05 s⁻¹ | – | – | – | < 1e-05 s⁻¹
12 | C34U G66U | < 1e-05 s⁻¹ | < 1e-05 s⁻¹ | – | – | < 1e-05 s⁻¹
13 | A36C G43U | < 1e-05 s⁻¹ | – | < 1e-05 s⁻¹ | < 1e-05 s⁻¹ | < 1e-05 s⁻¹
14 | C34A G60U C68A | < 1e-05 s⁻¹ | – | < 1e-05 s⁻¹ | < 1e-05 s⁻¹ | –
15 | C34A C58U | < 1e-05 s⁻¹ | < 1e-05 s⁻¹ | < 1e-05 s⁻¹ | < 1e-05 s⁻¹ | < 1e-05 s⁻¹
16 | A36G G63A C67G | < 1e-05 s⁻¹ | – | – | – | < 1e-05 s⁻¹
17 | A33U U46A | < 1e-05 s⁻¹ | < 1e-05 s⁻¹ | < 1e-05 s⁻¹ | – | –
18 | C34U U56A | < 1e-05 s⁻¹ | < 1e-05 s⁻¹ | < 1e-05 s⁻¹ | < 1e-05 s⁻¹ | –
19 | C34U G37A | < 1e-05 s⁻¹ | – | – | < 1e-05 s⁻¹ | < 1e-05 s⁻¹
20 | A36C G44A | < 1e-05 s⁻¹ | < 1e-05 s⁻¹ | < 1e-05 s⁻¹ | < 1e-05 s⁻¹ | < 1e-05 s⁻¹

Row | Variant | self-cleavage kobs at 40 uM GlcN6P [1] | self-cleavage kobs at 160 uM GlcN6P [2] | self-cleavage kobs at 640 uM GlcN6P [3] | self-cleavage kobs at 2500 uM GlcN6P [4] | self-cleavage kobs at 10000 uM GlcN6P [5]
21 | G35U U54C U55A G59C | < 1e-05 s⁻¹ | – | – | – | < 1e-05 s⁻¹
22 | A33U C67U C70G | < 1e-05 s⁻¹ | – | – | – | –
23 | A36U U45C C50U | < 1e-05 s⁻¹ | – | – | – | –
24 | C34G U45A | < 1e-05 s⁻¹ | < 1e-05 s⁻¹ | < 1e-05 s⁻¹ | < 1e-05 s⁻¹ | < 1e-05 s⁻¹
25 | A33G G40C U56G | < 1e-05 s⁻¹ | – | – | – | –
26 | A33G U55C G59A | < 1e-05 s⁻¹ | – | < 1e-05 s⁻¹ | < 1e-05 s⁻¹ | < 1e-05 s⁻¹
27 | C34U U55C | < 1e-05 s⁻¹ | < 1e-05 s⁻¹ | < 1e-05 s⁻¹ | < 1e-05 s⁻¹ | < 1e-05 s⁻¹
28 | A33G C71U | < 1e-05 s⁻¹ | – | – | – | < 1e-05 s⁻¹
29 | G37A G40C A48U G63A | < 1e-05 s⁻¹ | – | – | – | –
30 | A36U C70A | 3.96e-05 ± 1e-05 s⁻¹ | 4.33e-05 ± 1.3e-05 s⁻¹ | 0.000143 ± 3.1e-05 s⁻¹ | – | 2.74e-05 ± 7.6e-06 s⁻¹
31 | C34G C58G | < 1e-05 s⁻¹ | < 1e-05 s⁻¹ | < 1e-05 s⁻¹ | – | < 1e-05 s⁻¹
32 | C34G C58U | < 1e-05 s⁻¹ | – | < 1e-05 s⁻¹ | < 1e-05 s⁻¹ | < 1e-05 s⁻¹
33 | G35A C50G C71U | 0.000138 ± 3.5e-05 s⁻¹ | – | – | 8.9e-05 ± 3.1e-05 s⁻¹ | 0.000191 ± 3.6e-05 s⁻¹
34 | G35U C50U C67G | 0.000272 ± 0.0001 s⁻¹ | – | – | – | –
35 | C34G G63C | < 1e-05 s⁻¹ | < 1e-05 s⁻¹ | < 1e-05 s⁻¹ | – | < 1e-05 s⁻¹
36 | G35A U47A G51U | < 1e-05 s⁻¹ | – | – | – | –
37 | G35U U54A | < 1e-05 s⁻¹ | < 1e-05 s⁻¹ | < 1e-05 s⁻¹ | < 1e-05 s⁻¹ | –
38 | C34A G59U | < 1e-05 s⁻¹ | < 1e-05 s⁻¹ | < 1e-05 s⁻¹ | < 1e-05 s⁻¹ | < 1e-05 s⁻¹
39 | C34G A42G | < 1e-05 s⁻¹ | – | < 1e-05 s⁻¹ | < 1e-05 s⁻¹ | < 1e-05 s⁻¹
40 | A33G G44C | < 1e-05 s⁻¹ | < 1e-05 s⁻¹ | < 1e-05 s⁻¹ | < 1e-05 s⁻¹ | < 1e-05 s⁻¹

Reference: the supplement of paper PMC7125110
